{"source": "paper doi:10.1101/406538", "about": "(bioRxiv, 2018)", "target": "T1, ATI2-N, N-terminal region of ATG8 Interacting Protein 2 (M1-T193) (Arabidopsis thaliana, UniProt Q8VY98 1-193)", "T1 sequence (looked up)": "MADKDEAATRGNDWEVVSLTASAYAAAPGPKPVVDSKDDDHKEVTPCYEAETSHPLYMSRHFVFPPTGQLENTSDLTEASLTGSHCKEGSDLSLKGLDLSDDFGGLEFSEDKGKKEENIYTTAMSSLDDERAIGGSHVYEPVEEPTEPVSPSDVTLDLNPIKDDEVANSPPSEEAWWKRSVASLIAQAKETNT", "assay": "NMR titration"}
{"binder": "ATG8f, processed form (1-117), recombinant (natural protein, Arabidopsis thaliana, UniProt Q8VYK7 1-117, looked up) MAKSSFKQEHDLEKRRAEAARIREKYPDRIPVIVEKAEKSDIPTIDKKKYLVPADLTVGQFVYVIRKRIKLSAEKAIFIFVDNVLPPAGALMSSVYEEKKDDDGFLYVTYSGENTFG", "values": [{"measurement": "binding result", "result": "binds"}]}
